Drawing on paper PMC11148541 (Cancer Immunology Research, 2024), this text covers Kd for one molecule.

The test concerns the target T1, mouse IL18BPd-Fc (mouse, UniProt Q9Z0M9 29-193).
T1 sequence: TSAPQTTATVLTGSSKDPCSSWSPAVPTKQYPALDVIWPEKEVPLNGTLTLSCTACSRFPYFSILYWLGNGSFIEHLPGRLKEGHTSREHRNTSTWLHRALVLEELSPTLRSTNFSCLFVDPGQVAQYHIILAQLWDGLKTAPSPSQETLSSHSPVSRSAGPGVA
Put plainly: KinExA.

B1: mouse IL18 (ligand)
chain: NFGRLHCTTAVIRNINDQVLFVDKRQPVFEDMTDIDQSASEPQTRLIIYMYKDSEVRGLAVTLSVKDSKMSTLSCKNKIISFEEMDPPENIDDIQSDLIFFQKRVPGHNKMEFESSLYEGHFLACQKEDDAFKLILKKKDENGDKSVMFTLTNLHQS
As for B1, the affinity, expressed as Kd, was 3.7 pM.
